From publication PMC4265266
“And” between values parts separate entries of the source, which are not always exact repeats. Equal values may be shown once.

Molecular target: FLAG-tagged recombinant human butyrylcholinesterase (^FLAGBChE) (human) (UniProt P06276)
Assay: non-reducing SDS-PAGE with immuno

With “FLAG-tagged recombinant human butyrylcholinesterase (^FLAGBChE) (from UniProt P06276 29-602) (enzyme)” the stoichiometry N was 2 and 4.
